{"source": "patent US20210041458A1", "about": "“Lectin Assay For Assessing Glycoforms As An Early Marker In Disease” (Baruch S. Blumberg Institute, priority 2009, published 2021)", "key": {"[1]": {"experiment": "Selectivity for fucose linkage", "type": "binding"}, "[2]": {"conditions": "multivalent; compared to other lectins; cited from earlier work"}, "[3]": {"experiment": "Surface plasmon resonance, tryptophan fluorescence and enzyme linked lectin assays", "type": "binding", "conditions": "rAAL from bacteria, isolated by nickel affinity chromatography", "procedure": "Quantitative equilibrium binding of mutant and wild-type AAL for the selection ligand and other L-fucopyranosyl oligosaccharides are determined by BIAcore analysis and enzyme linked lectin assays (Oiausson et al)."}, "IgG0 ligand [4]": {"test_system": "IgG0 ligand", "experiment": "Competition (indirect) ELISA: unbiotinylated AAL proteins against biotinylated AAL binding to IgG0 in serum", "set-up": "species or system human", "conditions": "for decrease in signal output versus control: compared with commercial (Vector) AAL", "procedure": "96 well plates are coated with sodium periodate (NaIO4) treated mouse IgG (1.0 ug/well). 3 ul of serum from a patient with cirrhosis (Gish 342) or serum from normal donors (Sigma) were diluted to 100 ul and added to antibody coated wells. Plates are washed and then incubated at room temperature for 30 minutes/shaking with equivalent amounts of either unbiotinylated commercial (Vector) AAL, unbiotinylated recombinant 10×-His tagged (rAAL 10×), or unbiotinylated recombinant 10×-His tagged mutant AAL (rAAL N129Q, N224Q)). Equivalent amounts of biotinylated AAL was then added to each well and incubated for 1 hour at room temperature/shaking. Plates are washed and incubated with streptavidin-800-IRDye as previously described. Plates are washed and fluorescence quantified using a LiCor Odyssey machine. Control samples measured biotinylated AAL binding to IgG0 in the absence of unbiotinylated AAL.\nCompetition experiments provide an indirect ELISA for measuring the ability of unbiotinylated commercial (Vector) and unbiotinylated rAAL proteins to interfere with binding of biotinylated AAL to the IgG0 ligand. It is a qualitative indication of the relative affinities of the untagged AAL proteins for the IgG0 ligand."}, "IgG0 ligand [5]": {"test_system": "IgG0 ligand", "experiment": "IgG0 ligand binding to AAL proteins coated on nickel NTA plates, fluorescence readout", "set-up": "species or system human", "conditions": "FIG. 2", "procedure": "Equal amounts of recombinant AAL (wild type or mutants) containing 10× Histidine tags were coated to nickel NT A plates and incubated with increasing amounts of IgG0 ligand (X axis). Un tagged, commercially purchased AAL (AAL-V) was also coated to nickel NT A plates or on high affinity binding ELISA plates (AAL-Vc) and incubated with increasing amounts of IgG0 ligand. Plates were washed and incubated with fluorescently tagged anti-human lgG, washed and read in a fluorescence detector. Increasing relative fluorescence indicates higher binding affinity."}, "[6]": {"conditions": "serum from a cirrhotic patient (Gish 342), FIG. 3"}}, "note": "“Also recorded” adds a separate entry of the source.", "data": [{"molecule": "N224Q: mutant Aleuria aurantia lectin with N224 changed to glutamine (protein, UniProt P18891 2-313, looked up, variant N224Q, 10xHis tag, mutant Aleuria aurantia lectin with N224 changed to glutamine) Fucose-specific lectin: PTEFLYTSKIAAISWAATGGRQQRVYFQDLNGKIREAQRGGDNPWTGGSSQNVIGEAKLFSPLAAVTWKSAQGIQIRVYCVNKDNILSEFVYDGSKWITGQLGSVGVKVGSNSKLAALQWGGSESAPPNIRVYYQKSNGSGSSIHEYVWSGKWTAGASFGSTVPGTGIGATAIGPGRLRIYYQATDNKIREHCWDSNSWYVGGFSASASAGVSIAAISWGSTPQIRVYWQKGREELYEAAYGGSWNTPGQIKDASRPTPSLPDTFIAANSSGNIDISVFFQASGVSLQQWQWISGKGWSIGAVVPTGTPAGW", "values": [{"measurement": "selectivity for the 1-6 linkage against outerarm linkages", "setting": "[1]", "result": "more selective for the 1-6 linkage than outerarm"}]}, {"molecule": "AAL: 312 amino acid lectin with five binding sites for L-fucose or L-fucose-linked oligosaccharides (protein, UniProt P18891 2-313, looked up) Fucose-specific lectin: PTEFLYTSKIAAISWAATGGRQQRVYFQDLNGKIREAQRGGDNPWTGGSSQNVIGEAKLFSPLAAVTWKSAQGIQIRVYCVNKDNILSEFVYDGSKWITGQLGSVGVKVGSNSKLAALQWGGSESAPPNIRVYYQKSNGSGSSIHEYVWSGKWTAGASFGSTVPGTGIGATAIGPGRLRIYYQATDNKIREHCWDSNSWYVGGFSASASAGVSIAAISWGSTPNIRVYWQKGREELYEAAYGGSWNTPGQIKDASRPTPSLPDTFIAANSSGNIDISVFFQASGVSLQQWQWISGKGWSIGAVVPTGTPAGW", "values": [{"measurement": "binding affinity for carbohydrate ligands", "setting": "[2]", "result": "micromolar; also recorded: micrormolar"}]}, {"molecule": "rAAL: recombinant AAL produced in and isolated from bacteria using nickel affinity chromatography (protein, UniProt P18891 2-313, looked up, His tag) Fucose-specific lectin: PTEFLYTSKIAAISWAATGGRQQRVYFQDLNGKIREAQRGGDNPWTGGSSQNVIGEAKLFSPLAAVTWKSAQGIQIRVYCVNKDNILSEFVYDGSKWITGQLGSVGVKVGSNSKLAALQWGGSESAPPNIRVYYQKSNGSGSSIHEYVWSGKWTAGASFGSTVPGTGIGATAIGPGRLRIYYQATDNKIREHCWDSNSWYVGGFSASASAGVSIAAISWGSTPNIRVYWQKGREELYEAAYGGSWNTPGQIKDASRPTPSLPDTFIAANSSGNIDISVFFQASGVSLQQWQWISGKGWSIGAVVPTGTPAGW", "values": [{"measurement": "binding affinities for fucosylated oligosaccharides compared with commercially prepared AAL", "setting": "[3]", "result": "substantially higher binding affinities"}, {"measurement": "affinity for the IgG0 ligand compared with commercially available AAL", "setting": "IgG0 ligand [4]; Example 1", "result": "higher affinity"}, {"measurement": "affinity in cirrhotic patients compared with controls", "setting": "IgG0 ligand [4]; serum samples, FIG. 3", "result": "significantly higher affinity"}]}, {"molecule": "AAL M1(N129Q): recombinant 10× His-tagged mutant Aleuria aurantia lectin with N129 changed to glutamine (protein, UniProt P18891 2-313, looked up, variant N129Q, 10xHis tag, recombinant 10× His-tagged mutant Aleuria aurantia lectin with N129 changed to glutamine) Fucose-specific lectin: PTEFLYTSKIAAISWAATGGRQQRVYFQDLNGKIREAQRGGDNPWTGGSSQNVIGEAKLFSPLAAVTWKSAQGIQIRVYCVNKDNILSEFVYDGSKWITGQLGSVGVKVGSNSKLAALQWGGSESAPPQIRVYYQKSNGSGSSIHEYVWSGKWTAGASFGSTVPGTGIGATAIGPGRLRIYYQATDNKIREHCWDSNSWYVGGFSASASAGVSIAAISWGSTPNIRVYWQKGREELYEAAYGGSWNTPGQIKDASRPTPSLPDTFIAANSSGNIDISVFFQASGVSLQQWQWISGKGWSIGAVVPTGTPAGW", "values": [{"measurement": "Limit of Detection", "setting": "IgG0 ligand [5]; IgG0 ligand", "result": 10, "unit": "ng/mL"}, {"measurement": "improvement of the Limit of Detection", "setting": "IgG0 ligand [5]; IgG0 ligand", "result": "10-100 fold"}, {"measurement": "signal to noise ratio", "setting": "IgG0 ligand [5]; increasing IgG0 ligand", "result": "highest signal to noise ratio"}]}, {"molecule": "commercial (Vector) AAL: untagged, commercially purchased AAL (Vector), eluted with L-fucose in manufacture (protein, UniProt P18891 2-313, looked up) Fucose-specific lectin: PTEFLYTSKIAAISWAATGGRQQRVYFQDLNGKIREAQRGGDNPWTGGSSQNVIGEAKLFSPLAAVTWKSAQGIQIRVYCVNKDNILSEFVYDGSKWITGQLGSVGVKVGSNSKLAALQWGGSESAPPNIRVYYQKSNGSGSSIHEYVWSGKWTAGASFGSTVPGTGIGATAIGPGRLRIYYQATDNKIREHCWDSNSWYVGGFSASASAGVSIAAISWGSTPNIRVYWQKGREELYEAAYGGSWNTPGQIKDASRPTPSLPDTFIAANSSGNIDISVFFQASGVSLQQWQWISGKGWSIGAVVPTGTPAGW", "values": [{"measurement": "signal output", "setting": "IgG0 ligand [4]; serum from a cirrhotic patient (Gish 342), control ~35, FIG. 3", "result": "~20"}]}, {"molecule": "rAAL 10×: unbiotinylated recombinant 10×-His tagged wild-type AAL (protein, UniProt P18891 2-313, looked up, 10xHis tag, unbiotinylated recombinant 10×-His tagged wild-type AAL) Fucose-specific lectin: PTEFLYTSKIAAISWAATGGRQQRVYFQDLNGKIREAQRGGDNPWTGGSSQNVIGEAKLFSPLAAVTWKSAQGIQIRVYCVNKDNILSEFVYDGSKWITGQLGSVGVKVGSNSKLAALQWGGSESAPPNIRVYYQKSNGSGSSIHEYVWSGKWTAGASFGSTVPGTGIGATAIGPGRLRIYYQATDNKIREHCWDSNSWYVGGFSASASAGVSIAAISWGSTPNIRVYWQKGREELYEAAYGGSWNTPGQIKDASRPTPSLPDTFIAANSSGNIDISVFFQASGVSLQQWQWISGKGWSIGAVVPTGTPAGW", "values": [{"measurement": "decrease in signal output versus control", "setting": "IgG0 ligand [4]; [6]", "result": "greater decreases in signal output versus control"}]}, {"molecule": "rAAL (N129Q, N224Q): recombinant 10×-His tagged mutant AAL with both N129Q and N224Q (protein, UniProt P18891 2-313, looked up, variant N129Q N224Q, 10xHis tag, recombinant 10×-His tagged mutant AAL with both N129Q and N224Q) Fucose-specific lectin: PTEFLYTSKIAAISWAATGGRQQRVYFQDLNGKIREAQRGGDNPWTGGSSQNVIGEAKLFSPLAAVTWKSAQGIQIRVYCVNKDNILSEFVYDGSKWITGQLGSVGVKVGSNSKLAALQWGGSESAPPQIRVYYQKSNGSGSSIHEYVWSGKWTAGASFGSTVPGTGIGATAIGPGRLRIYYQATDNKIREHCWDSNSWYVGGFSASASAGVSIAAISWGSTPQIRVYWQKGREELYEAAYGGSWNTPGQIKDASRPTPSLPDTFIAANSSGNIDISVFFQASGVSLQQWQWISGKGWSIGAVVPTGTPAGW", "values": [{"measurement": "decrease in signal output versus control", "setting": "IgG0 ligand [4]; [6]", "result": "greater decreases in signal output versus control"}]}]}
